Measurements as given in article PMC9681212.

Biological target: Halo-HIF-1β (endogenously HaloTag-tagged HIF-1β, knock-in clone A21) (human (endogenous in 786-O)) (UniProt P27540)
Sequence (P27540 whole entry): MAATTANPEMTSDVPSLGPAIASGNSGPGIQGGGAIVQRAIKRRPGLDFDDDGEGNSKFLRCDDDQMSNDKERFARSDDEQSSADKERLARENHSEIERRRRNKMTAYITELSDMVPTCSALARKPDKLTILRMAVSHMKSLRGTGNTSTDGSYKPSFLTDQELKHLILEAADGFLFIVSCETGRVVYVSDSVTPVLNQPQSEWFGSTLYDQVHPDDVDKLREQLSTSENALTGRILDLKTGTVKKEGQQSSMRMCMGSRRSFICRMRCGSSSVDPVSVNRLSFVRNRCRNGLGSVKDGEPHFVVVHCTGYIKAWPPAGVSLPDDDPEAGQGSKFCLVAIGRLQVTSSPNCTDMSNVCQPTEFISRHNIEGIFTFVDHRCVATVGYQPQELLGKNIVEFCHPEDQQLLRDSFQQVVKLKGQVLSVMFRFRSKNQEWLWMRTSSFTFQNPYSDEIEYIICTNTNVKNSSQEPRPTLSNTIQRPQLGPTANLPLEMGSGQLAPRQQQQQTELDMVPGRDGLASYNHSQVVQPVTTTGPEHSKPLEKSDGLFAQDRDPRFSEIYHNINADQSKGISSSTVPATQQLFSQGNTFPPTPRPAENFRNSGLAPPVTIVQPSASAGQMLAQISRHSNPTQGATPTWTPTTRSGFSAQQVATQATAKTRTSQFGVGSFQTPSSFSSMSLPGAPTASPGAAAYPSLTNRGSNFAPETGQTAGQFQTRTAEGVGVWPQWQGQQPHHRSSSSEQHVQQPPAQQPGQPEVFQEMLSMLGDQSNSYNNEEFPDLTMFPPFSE

HIF-2α N-terminally fused with 3xFLAG tag through a short peptide linker sequence (GDGAGLIN), sequence (Q99814 whole entry, the tested form may be a part): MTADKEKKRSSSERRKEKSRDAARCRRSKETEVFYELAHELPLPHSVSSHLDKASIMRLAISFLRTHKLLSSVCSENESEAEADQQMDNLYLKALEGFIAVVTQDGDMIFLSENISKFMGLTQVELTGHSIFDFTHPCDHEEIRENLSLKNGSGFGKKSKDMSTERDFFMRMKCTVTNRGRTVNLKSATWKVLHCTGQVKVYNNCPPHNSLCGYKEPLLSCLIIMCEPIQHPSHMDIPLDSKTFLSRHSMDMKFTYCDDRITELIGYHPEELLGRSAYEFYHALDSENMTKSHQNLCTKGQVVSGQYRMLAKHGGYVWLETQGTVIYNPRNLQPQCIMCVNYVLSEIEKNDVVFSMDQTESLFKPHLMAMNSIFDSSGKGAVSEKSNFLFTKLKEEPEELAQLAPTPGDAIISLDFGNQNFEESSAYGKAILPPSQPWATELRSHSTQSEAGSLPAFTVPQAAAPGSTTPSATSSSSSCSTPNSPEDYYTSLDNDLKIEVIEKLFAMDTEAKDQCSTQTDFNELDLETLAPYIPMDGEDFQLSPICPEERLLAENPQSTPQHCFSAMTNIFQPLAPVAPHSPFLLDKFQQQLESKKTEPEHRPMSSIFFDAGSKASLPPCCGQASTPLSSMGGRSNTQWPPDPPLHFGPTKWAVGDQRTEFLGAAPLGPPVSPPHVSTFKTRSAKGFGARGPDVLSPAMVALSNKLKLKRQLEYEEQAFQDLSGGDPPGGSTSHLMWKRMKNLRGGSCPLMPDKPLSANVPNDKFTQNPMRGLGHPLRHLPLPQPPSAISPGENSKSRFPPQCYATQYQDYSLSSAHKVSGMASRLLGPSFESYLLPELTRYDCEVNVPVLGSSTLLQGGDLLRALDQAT

Q: With “HIF-2α N-terminally fused with 3xFLAG tag through a short peptide linker sequence (GDGAGLIN) (from UniProt Q99814 1-870) (natural protein)” as the substance, how does the fSPT of endogenous Halo-HIF-1β in live 786-O KIN cells stably overexpressing HIF-2α: bound fraction of Halo-HIF-1β (diffusion coefficient <0.1 μm^2/s, presumably chromatin-bound) read?
A: < 50%
